The target of the experiment is T1, His-tagged CD40 antigen (human, UniProt P25942 21-193, limits assumed).
T1 construct: Captured on an anti-His antibody on a CM5 chip; not shown: His tag
The experiment is described as follows: SPR, Biacore T200, CM5 chip, His-tagged CD40 captured on anti-His antibody. From the text:
That is, the anti-His antibody was immobilized on the surface of the CM5 sensor chip by an amine coupling method. His-tagged CD40 antigen was captured by reacting the His-tagged CD40 antigen with the antibody and then the captured antigen was reacted with sensor chip coated with an anti-his antibody. The results were read using biocore T200 (GE Healthcare).

T1 sequence (P25942 21-193 limits assumed): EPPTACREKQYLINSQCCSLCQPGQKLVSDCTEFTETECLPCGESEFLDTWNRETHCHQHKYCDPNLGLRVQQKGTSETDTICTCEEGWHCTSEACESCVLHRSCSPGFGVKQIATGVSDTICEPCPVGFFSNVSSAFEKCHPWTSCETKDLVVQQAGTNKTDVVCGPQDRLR

B1: anti-CD40 antibody RM8G-1 (antibody, V domains shown)
VH: LVQLKESGPGLVAPSQSLSITCTVSGFSLTDYGVGWIRQPPGKDLEWLGVMWGGGRTYYNAPLKSRLSISKDNSKSQVFLKMNSLQTDDTAMYYCVKTGQDYAVDYWGQGTSVTVSS
VL: DIVLTQSPASLAVSLGQRATISCRASKSVSTSAYSYMHWYQQKPGQPPKLLIYLASNLESGVPARFSGSGSGTDFTLNIHPVEEEDAATYYCQHSWDLPYTFGGGTKLEIK
notes: Mouse monoclonal antibody from hybridoma RM8G1 (KCLRF-BP-00336); also called RM RM8G-1; anti-CD40 RM8G-1
In the case of B1, binding was characterised by a dissociation constant (Kd) of 0.494 nM; the koff (in general, the rate constant with which the complex falls apart) turned out to be 0.000234 s⁻¹; the kon – broadly, the second-order rate constant of association – stood at 474000 M⁻¹ s⁻¹.

The values are drawn from patent US20200291123A1 (PB IMMUNE THERAPEUTICS, published 2020).
